According to patent publication US20260209362A1 (VIB VZW, published 2026):

Tests used:
[1] = molecular target: T1, biotinylated recombinant mouse IL-12Rβ2 (produced in-house) (mouse, UniProt P97378 24-637, random biotinylated); assay: BLI (Octet), P.E. VHH on immobilised biotinylated mIL-12RB2
T1 construct: also called mIL-12RB2; mIL12RB2
T1 sequence: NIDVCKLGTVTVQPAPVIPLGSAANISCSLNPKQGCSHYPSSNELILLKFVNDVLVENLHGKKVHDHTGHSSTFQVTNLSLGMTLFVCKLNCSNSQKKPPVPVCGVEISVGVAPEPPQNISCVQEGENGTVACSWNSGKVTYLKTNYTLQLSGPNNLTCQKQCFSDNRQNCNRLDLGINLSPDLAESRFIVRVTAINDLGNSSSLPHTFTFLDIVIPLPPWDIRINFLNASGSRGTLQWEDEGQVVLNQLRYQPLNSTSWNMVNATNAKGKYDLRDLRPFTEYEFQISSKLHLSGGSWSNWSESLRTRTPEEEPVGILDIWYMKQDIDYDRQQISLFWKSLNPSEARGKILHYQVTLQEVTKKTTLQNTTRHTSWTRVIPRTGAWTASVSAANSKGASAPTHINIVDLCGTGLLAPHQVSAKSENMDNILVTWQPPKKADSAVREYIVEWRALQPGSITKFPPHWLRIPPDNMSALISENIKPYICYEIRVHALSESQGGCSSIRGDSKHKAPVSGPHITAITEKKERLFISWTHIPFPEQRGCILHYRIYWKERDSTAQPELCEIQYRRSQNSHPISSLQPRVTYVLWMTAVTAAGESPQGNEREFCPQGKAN

[2] = molecular target: T2, mouse IL-12Rβ2 expressed on cells (mouse, UniProt P97378 24-874); assay: flow cytometry, P.E. VHH on HEK293T cells stably expressing mIL-12RB2
T2 construct: HEK293T cells, stably transduced (cDNA NM_008354); also called mIL-12RB2
T2 sequence: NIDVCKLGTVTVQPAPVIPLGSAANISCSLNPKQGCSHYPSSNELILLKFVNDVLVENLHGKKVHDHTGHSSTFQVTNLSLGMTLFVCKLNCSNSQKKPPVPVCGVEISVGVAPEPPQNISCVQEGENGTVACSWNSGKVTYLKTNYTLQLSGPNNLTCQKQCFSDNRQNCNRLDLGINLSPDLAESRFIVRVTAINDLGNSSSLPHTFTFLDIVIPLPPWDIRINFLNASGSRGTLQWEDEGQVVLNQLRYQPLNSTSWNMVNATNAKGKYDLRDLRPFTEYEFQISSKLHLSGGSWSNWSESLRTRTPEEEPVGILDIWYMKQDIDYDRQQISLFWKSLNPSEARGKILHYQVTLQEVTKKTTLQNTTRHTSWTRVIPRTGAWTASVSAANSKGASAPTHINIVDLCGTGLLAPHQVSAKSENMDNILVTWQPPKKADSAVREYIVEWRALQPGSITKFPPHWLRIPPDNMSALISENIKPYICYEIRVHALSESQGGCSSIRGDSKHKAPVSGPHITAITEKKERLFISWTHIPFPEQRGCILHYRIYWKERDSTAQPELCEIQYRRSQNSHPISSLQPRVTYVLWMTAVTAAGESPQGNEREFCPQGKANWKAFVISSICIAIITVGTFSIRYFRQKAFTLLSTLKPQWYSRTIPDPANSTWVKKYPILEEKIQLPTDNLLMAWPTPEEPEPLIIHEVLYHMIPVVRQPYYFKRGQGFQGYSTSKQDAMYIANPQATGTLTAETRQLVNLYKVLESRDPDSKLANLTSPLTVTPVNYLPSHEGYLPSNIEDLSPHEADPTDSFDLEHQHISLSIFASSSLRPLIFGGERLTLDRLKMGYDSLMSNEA

[3] = molecular target: T1, biotinylated recombinant mouse IL-12Rβ2 …; assay: BLI (Octet), P.E. VHH on immobilised biotinylated mIL-12RB2, 1:1 model
[4] = molecular target: T3, human IL-12Rβ2 expressed on cells (human, UniProt Q99665 24-862); assay: flow cytometry, P.E. VHH on HEK293T cells transiently expressing hIL-12RB2
T3 construct: HEK293T cells transiently transfected with a human IL-12Rβ2 plasmid (Genscript OHu21785); also called hIL-12RB2
T3 sequence: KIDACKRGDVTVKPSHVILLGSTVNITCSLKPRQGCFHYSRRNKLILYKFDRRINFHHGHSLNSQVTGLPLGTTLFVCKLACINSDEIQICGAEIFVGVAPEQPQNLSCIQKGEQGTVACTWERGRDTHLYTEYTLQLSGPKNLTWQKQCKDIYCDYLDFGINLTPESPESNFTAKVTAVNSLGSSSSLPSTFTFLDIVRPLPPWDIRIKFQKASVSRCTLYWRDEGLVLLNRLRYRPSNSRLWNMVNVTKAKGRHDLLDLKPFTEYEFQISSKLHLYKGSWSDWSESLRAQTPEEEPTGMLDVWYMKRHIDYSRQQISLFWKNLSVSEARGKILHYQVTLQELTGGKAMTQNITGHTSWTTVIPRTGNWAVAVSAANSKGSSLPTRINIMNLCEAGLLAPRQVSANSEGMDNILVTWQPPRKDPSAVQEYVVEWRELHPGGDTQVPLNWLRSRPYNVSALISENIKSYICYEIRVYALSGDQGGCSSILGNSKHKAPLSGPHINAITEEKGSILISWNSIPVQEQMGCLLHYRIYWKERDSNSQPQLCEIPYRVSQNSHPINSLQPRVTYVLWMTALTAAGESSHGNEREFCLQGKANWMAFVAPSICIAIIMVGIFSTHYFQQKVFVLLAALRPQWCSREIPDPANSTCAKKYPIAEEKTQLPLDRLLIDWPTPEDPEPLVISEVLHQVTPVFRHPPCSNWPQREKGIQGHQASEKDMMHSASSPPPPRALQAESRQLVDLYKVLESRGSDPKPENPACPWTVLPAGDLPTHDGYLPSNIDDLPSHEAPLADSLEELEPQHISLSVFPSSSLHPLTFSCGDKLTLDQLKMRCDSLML

B1: anti-IL-12Rβ2 VHH clone 3CAHM11 (VHH, not shown: small tags and cut ends)
VHH: QVQLQESGGGLVQAGGSLRLSCAASGRTFNNYAMAWFRQAPGKEREFIAAITRSDTTLYIDSVKGRFTISRDNAKNTVALQMNSLKPEDTAVYYCAAGMPYSYSDYPRDSKYDYWGRGTQVTVSS
notes: tested as periplasmic extract
B1 was tested. Which Response [1] did it give?
The Response was 1.03.

And the “% cells bound” value [2]?
Its value is 56.9%.

And the dMFI [2]?
Its dMFI is 316.

And the koff [3]?
The koff was 0.00462 s⁻¹.

What about the dMFI [4] of the same binder?
The dMFI was 684.

B2: anti-IL-12Rβ2 VHH clone 3CRHM14 (VHH, not shown: small tags and cut ends)
VHH: QVQLQESGGGLVQAGGSLRLSCAASGRTFSNYAMAWFRQAPGTEREFVAGLSGSGGDTEFYDDSVKGRFAISRDSAKNTVWLQMNSLKPEDTAVYYCAAATHVVVHYGLVRRRGTYDYWGQGTQVTVSS
notes: tested as periplasmic extract
Which Response [1] does the source give for B2 here?
Its Response is 0.957.

What about the “% cells bound” value [2] of the same binder?
Its value is 26.2%.

What about the dMFI [2] of the same binder?
The dMFI was 136.

What about the koff [3] of the same binder?
The koff was 0.00483 s⁻¹.

And the dMFI [4]?
Its dMFI is 589.

B3: anti-IL-12Rβ2 VHH clone 3CRHM73 (VHH, not shown: small tags and cut ends)
VHH: QVQLQESGGGLVQAGGSLSLSCAASGSAFRLNFMGWYRQAPGKQRELVAAINSGGTEIYHDSVKGRFTISRDNADSTVWLQMNSLKPDDTAVYYCAADRGISWSKLAGGMDYWGKGTQVTVSS
notes: tested as periplasmic extract; also called 21060
Which results are given for B3?
Response [1]: 0.944; % cells bound [2]: 27.3%; dMFI [2]: 150; koff [3]: 0.00605 s⁻¹; dMFI [4]: 297

B4: anti-IL-12Rβ2 VHH clone 3CRHM99 (VHH, not shown: small tags and cut ends)
VHH: QVQLQESGGGLVQPGGSLRLSCAASGISSSRLHVGWFRQSPGKEREFVAAISLSGGTQAYTDSVKGRFTISGDNVKNTAYLQMNSLRPEDTAVYYCAARERFIWTWSDLTYDYWGQGTQVTVSS
notes: tested as periplasmic extract; also called 21062
Which results are given for B4?
Response [1]: 0.812; % cells bound [2]: 57.3%; dMFI [2]: 309; koff [3]: 0.00671 s⁻¹; dMFI [4]: 458
